Source: patent US20150024066A1, “METHODS FOR […] TREATING EXCESS WEIGHT USING OXYNTOMODULIN” (IMPERIAL INNOVATIONS, published 2015)

How the values were obtained:
GLP-1 receptor [1] = target: T1, GLP-1 receptor (rat, UniProt P32301); assay: competition of [^125I]GLP-1 binding to rat hypothalamic membranes; reference GLP-1
GLP-1 receptor [2] = target: T1, GLP-1 receptor; assay: competition of [^125I]GLP-1 binding to rat hypothalamic membranes, unlabeled peptide varied
Description: Membranes were incubated at room temperature for 90 min. Bound and free radioactivity were separated by centrifugation (2 min, 4° C.). Pelleted membranes were washed with assay buffer (0.5 ml, ice-cold), and the membranes were centrifuged as described above. The supernatant was removed, and the radioactivity in the pellet was counted using a γ-counter. […] All curves were constructed with points in triplicate. IC₅₀ values were calculated using the Prism 3 program (GraphPad Software, Inc., San Diego, Calif.).

HSQGTFTSDYSKYLDSRRAQDFVQWLMNTKRNKNNIA [oxyntomodulin (OXM)]
affinity relative to GLP-1 (GLP-1 receptor [1]): ~2 orders of magnitude weaker
IC50 (GLP-1 receptor [2]): 8.2 nM
